The test has as its target MYC(303–351) (human). As to the kind of experiment: NMR; printed fit value 1205 uM in parentheses.

B1: MYC(1–88) (domain or fragment)
chain: MPLNVSFTNRNYDLDYDSVQPYFYCDEEENFYQQQQQSELQPPAPSEDIWKKFELLPTPPLSPSRRSGLCSPSYVAVTPFSLRGDNDG
Consider B1, for which the Kd (as a rule, the concentration at which binding is half-saturated) is over 1000 µM.

These data come from doi:10.1101/2023.06.21.545551 (2023).
